This passage reports Ki results from PMC11532494 (Nature Communications, 2024).

The target of the assay is AcuC (acetoin-utilization protein C) of Bacillus subtilis (Bacillus subtilis) (UniProt P39067). The assay can be described thus: dose-response enzyme inhibition (Fluor-de-Lys assay).
AcuC (acetoin-utilization protein C) of Bacillus subtilis (Bacillus subtilis), sequence (P39067 whole entry): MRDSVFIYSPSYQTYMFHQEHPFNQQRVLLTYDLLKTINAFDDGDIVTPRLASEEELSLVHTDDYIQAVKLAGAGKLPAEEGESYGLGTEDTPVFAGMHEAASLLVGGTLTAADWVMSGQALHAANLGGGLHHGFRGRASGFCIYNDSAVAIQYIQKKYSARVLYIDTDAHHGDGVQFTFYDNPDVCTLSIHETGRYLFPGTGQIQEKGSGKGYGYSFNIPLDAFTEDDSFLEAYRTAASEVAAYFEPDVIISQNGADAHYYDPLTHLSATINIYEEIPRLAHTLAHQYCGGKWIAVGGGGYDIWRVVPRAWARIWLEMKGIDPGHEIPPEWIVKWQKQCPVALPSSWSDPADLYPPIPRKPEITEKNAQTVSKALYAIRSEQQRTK

Regarding apicidin A (peptide), the Ki (commonly a measure of affinity in units of concentration, obtained from inhibition or displacement) is less than 0.072 µM.
